Sequences and labels used below:
B1: QLIDYERQL (peptide)
peptide: QLIDYERQL
B2: ALNENINQV (peptide)
peptide: ALNENINQV
B3: SLAESSFDV (peptide)
peptide: SLAESSFDV
B4: SLFSSPPEI (peptide)
peptide: SLFSSPPEI
B5: TLFYSLREV (peptide)
peptide: TLFYSLREV
B6: YLLHFPMAL (peptide)
peptide: YLLHFPMAL
B7: SLFEWFHPL (peptide)
peptide: SLFEWFHPL
B8: SLMGPVVHEV (peptide)
peptide: SLMGPVVHEV
B9: YIFTTPKSV (peptide)
peptide: YIFTTPKSV
B10: GQFPSYLETV (peptide)
peptide: GQFPSYLETV
B11: SVLDQKILL (peptide)
peptide: SVLDQKILL
B12: TLFEHLPHI (peptide)
peptide: TLFEHLPHI
B13: TLAELGAVQV (peptide)
peptide: TLAELGAVQV
B14: SLFQGVEFHYV (peptide)
peptide: SLFQGVEFHYV
B15: SLAVLVPIV (peptide)
peptide: SLAVLVPIV
B16: ALLEENSTPQL (peptide)
peptide: ALLEENSTPQL
B17: VVLDGGQIVTV (peptide)
peptide: VVLDGGQIVTV
B18: ALADKELLPSV (peptide)
peptide: ALADKELLPSV
B19: VLYPSLKEI (peptide)
peptide: VLYPSLKEI
B20: GLLAGDRLVEV (peptide)
peptide: GLLAGDRLVEV
B21: SLLNFLQHL (peptide)
peptide: SLLNFLQHL
B22: RLYDPASGTISL (peptide)
peptide: RLYDPASGTISL
B23: SLFGQDVKAV (peptide)
peptide: SLFGQDVKAV
B24: VLFQEALWHV (peptide)
peptide: VLFQEALWHV
B25: SLLHTIYEV (peptide)
peptide: SLLHTIYEV
B26: LLDDSLVSI (peptide)
peptide: LLDDSLVSI
B27: KLISSYYNV (peptide)
peptide: KLISSYYNV
B28: KLLDLSDSTSV (peptide)
peptide: KLLDLSDSTSV
B29: KMFESFIESV (peptide)
peptide: KMFESFIESV
B30: ILDDNMQKL (peptide)
peptide: ILDDNMQKL
B31: ATLNIIHSV (peptide)
peptide: ATLNIIHSV
B32: YLGEGPRMV (peptide)
peptide: YLGEGPRMV
B33: FLEETKATV (peptide)
peptide: FLEETKATV
B34: ALYGKTEVV (peptide)
peptide: ALYGKTEVV
B35: ALLRVTPFI (peptide)
peptide: ALLRVTPFI
B36: SLLEKAGPEL (peptide)
peptide: SLLEKAGPEL
B37: SLIPAVLTV (peptide)
peptide: SLIPAVLTV
B38: QQLDSKFLEQV (peptide)
peptide: QQLDSKFLEQV
B39: RVQEAIAEV (peptide)
peptide: RVQEAIAEV
B40: VLPNFLPYNV (peptide)
peptide: VLPNFLPYNV
B41: SLAEEKLQASV (peptide)
peptide: SLAEEKLQASV
B42: SLDGKAALTEL (peptide)
peptide: SLDGKAALTEL
B43: ALANQKLYSV (peptide)
peptide: ALANQKLYSV
B44: YIQDEINTI (peptide)
peptide: YIQDEINTI
B45: ILSGIGVSQV (peptide)
peptide: ILSGIGVSQV
B46: YLLEKFVAV (peptide)
peptide: YLLEKFVAV
B47: YLGPHIASVTL (peptide)
peptide: YLGPHIASVTL
B48: ALFPALRPGGFQA (peptide)
peptide: ALFPALRPGGFQA
B49: KLDAFVEGV (peptide)
peptide: KLDAFVEGV
B50: TLMDMRLSQV (peptide)
peptide: TLMDMRLSQV
B51: YQMDIQQEL (peptide)
peptide: YQMDIQQEL
B52: ALIEGAGILL (peptide)
peptide: ALIEGAGILL
B53: SLHNGVIQL (peptide)
peptide: SLHNGVIQL
B54: GLFAPVHKV (peptide)
peptide: GLFAPVHKV
B55: VLLAQIIQV (peptide)
peptide: VLLAQIIQV
B56: RVAS*PTSGV (peptide)
peptide: RVA[pS]PTSGV
notes: phosphopeptide from IRS2
B57: ALRGEIETV (peptide)
peptide: ALRGEIETV
B58: SLLSGRISTL (peptide)
peptide: SLLSGRISTL
B59: VLDEPYEKV (peptide)
peptide: VLDEPYEKV
B60: YLMEGSYNKV (peptide)
peptide: YLMEGSYNKV
B61: FLLGFIPAKA (peptide)
peptide: FLLGFIPAKA
B62: AILETAPKEV (peptide)
peptide: AILETAPKEV
B63: SLLESNKDLLL (peptide)
peptide: SLLESNKDLLL
B64: RTIEYLEEV (peptide)
peptide: RTIEYLEEV
B65: FLWERPTLLV (peptide)
peptide: FLWERPTLLV
B66: GLLDNPELRV (peptide)
peptide: GLLDNPELRV
B67: KLNDLIQRL (peptide)
peptide: KLNDLIQRL
B68: TLQDHLNSL (peptide)
peptide: TLQDHLNSL

Square brackets hold non-standard residues; d marks the D form. Ends that are not written are not given here. pS = N[C@@H](COP(=O)(O)O)C(=O)O

This test addresses HLA-A*02 (human). Briefly: UV-ligand exchange, anti-b2m ELISA; grade: exchange yield >=50%. (In an ELISA, binding on a coated surface is turned into a signal by an enzyme label.)
As for B1, the peptide exchange yield lay in the range of 50 to 75%. As for B2, the peptide exchange yield was in the range of 50 to 75%.

B3 gave a peptide exchange yield of 50 to 75%.

B4 yielded a peptide exchange yield of 50 to 75%. Molecule B5 yielded a peptide exchange yield of 50 to 75%.

Turning to B6, the peptide exchange yield lay within 50 to 75%. Under B7 stands 50 to 75%; under B8, 50 to 75%; under B9, 50 to 75%. Turning to B10, the peptide exchange yield fell in the range of 50 to 75%.

For the molecule B11, the peptide exchange yield lay in the range of 50 to 75%.

For the molecule B12, the peptide exchange yield fell in the range of 50 to 75%. Under B13 stands 50 to 75%. Under B14 stands 50 to 75%; under B15, 50 to 75%; under B16, 50 to 75%. B17 returned a peptide exchange yield of 50 to 75%. Molecule B18 came in with a peptide exchange yield of 50 to 75%.

B19: the peptide exchange yield was in the range of 50 to 75%. In turn, B20 yielded a peptide exchange yield of 50 to 75%. For B21, the peptide exchange yield was 50 to 75%. To B22 belongs 50 to 75%; to B23, 50 to 75%. To B24 belongs 50 to 75%.

Molecule B25 came in with a peptide exchange yield of 50 to 75%.

On to B26, for which the peptide exchange yield lay within 50 to 75%. To B27 belongs 50 to 75%; to B28, 50 to 75%; to B29, 50 to 75%. In the case of B30, the peptide exchange yield fell in the range of 50 to 75%.

Turning to B31, the peptide exchange yield was in the range of 50 to 75%. For the molecule B32, the peptide exchange yield lay within 50 to 75%. Under B33 stands 50 to 75%; under B34, 50 to 75%; under B35, 50 to 75%.

B36 yielded a peptide exchange yield of 50 to 75%. B37: the peptide exchange yield fell in the range of 50 to 75%. Regarding B38, the peptide exchange yield lay within 50 to 75%. B39: the peptide exchange yield was in the range of 50 to 75%. In turn, B40 came in with a peptide exchange yield of 50 to 75%. Under B41 stands 50 to 75%. Take B42: the peptide exchange yield is 50 to 75%. In turn, B43 showed a peptide exchange yield of 50 to 75%. To B44 belongs 50 to 75%; to B45, 50 to 75%. Under B46 stands 50 to 75%. B47: the peptide exchange yield was in the range of 50 to 75%. As for B48, the peptide exchange yield is 50 to 75%. Under B49 stands 50 to 75%; under B50, 50 to 75%. To B51 belongs 50 to 75%. To B52 belongs 50 to 75%; to B53, 50 to 75%. Molecule B54 came in with a peptide exchange yield of 50 to 75%. B55 gave a peptide exchange yield of 50 to 75%. The molecule B56 registered a peptide exchange yield of 50 to 75%. To B57 belongs 50 to 75%; to B58, 50 to 75%. On to B59, for which the peptide exchange yield is 50 to 75%. To B60 belongs 50 to 75%; to B61, 50 to 75%. For the molecule B62, the peptide exchange yield is 50 to 75%.

As for B63, the peptide exchange yield lay within 50 to 75%. To B64 belongs 50 to 75%. Under B65 stands 50 to 75%.

As to B66, the peptide exchange yield lay in the range of 50 to 75%. Under B67 stands 50 to 75%; under B68, 50 to 75%.

The values are drawn from patent US20160250307A1 (IMMATICS BIOTECHNOLOGIES, published 2016).
